For test [1], the target named is T1, PLXNA1-LBD, recombinant human plexinA1 ligand-binding domains (human, UniProt Q9UIW2 27-710).
T1 chain: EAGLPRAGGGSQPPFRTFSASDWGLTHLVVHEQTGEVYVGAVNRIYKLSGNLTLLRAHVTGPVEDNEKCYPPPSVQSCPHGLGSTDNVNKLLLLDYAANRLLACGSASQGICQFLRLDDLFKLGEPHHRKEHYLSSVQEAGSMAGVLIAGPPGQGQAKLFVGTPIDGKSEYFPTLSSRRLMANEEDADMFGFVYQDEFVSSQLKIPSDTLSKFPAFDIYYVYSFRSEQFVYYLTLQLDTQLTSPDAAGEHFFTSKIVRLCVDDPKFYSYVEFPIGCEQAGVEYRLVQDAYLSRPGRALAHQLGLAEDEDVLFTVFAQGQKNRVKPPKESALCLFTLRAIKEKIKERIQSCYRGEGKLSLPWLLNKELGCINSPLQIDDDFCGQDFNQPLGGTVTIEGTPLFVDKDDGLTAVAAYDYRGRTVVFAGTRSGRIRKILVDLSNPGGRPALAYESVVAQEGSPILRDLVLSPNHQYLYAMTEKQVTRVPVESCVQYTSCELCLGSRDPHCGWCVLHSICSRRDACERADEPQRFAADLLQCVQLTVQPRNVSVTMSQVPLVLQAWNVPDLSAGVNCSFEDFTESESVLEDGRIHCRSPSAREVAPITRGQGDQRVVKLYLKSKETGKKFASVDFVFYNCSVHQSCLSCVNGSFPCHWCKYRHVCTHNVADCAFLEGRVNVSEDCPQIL
As to the kind of experiment: BLI.

For test [2], the target named is PLXNA1-ECD, recombinant human plexinA1 full extracellular domains (human, UniProt Q9UIW2 27-1244). Kind of test: BLI. (In general: BLI is a label-free optical method that tracks binding on a fibre tip over time.)

As a reminder, the koff is the rate constant with which the complex falls apart.

B1: aPLXNA1-19-43 Fab (Fab, V domains shown)
VH: EVQLQQSGPELVKPGASVKISCKASGYKFTENYMDWVKQSHGESLEWIGDISPDNGDTSYNQKFRDKATLTVDKSSSTAYMELRSLTSEDSAVYYCAQIIYYDYVGYALDYWGQGTSVTVSS
VL: QIVLTQSPAILSASPGEKVTMSCSVSSSITYMHWYQQKPGTSPKRWIYDTSKLASGVPARFSGSGSGTSFSLTISNMEAEDAATYYCHQRSSYPYSFGGGTKLEIK
On to B1, for which the koff in test [1] amounted to 0.000252 s⁻¹; in test [2], 0.000111 s⁻¹.

For the origin of these results see article PMC12809092 (2025).
